Source: patent US20090162390A1

Key:
Test in all cases: cell-based or functional assay
[1] = biological target: HIV-1 env glycoprotein (YU2) (HIV-1 (YU2)) (UniProt P35961)
[2] = biological target: HIV-2 strain 7312A envelope polypeptide (wild-type) (HIV-2 (isolate 7312A))
[3] = biological target: HIV-2 7312A envelope with site-directed substitutions at 675 (L to I) and 676 (A to T) (HXB2 numbering) (HIV-2 (isolate 7312A))
[4] = biological target: HIV-2 ST envelope polypeptide (wild-type) (HIV-2 (strain ST)) (UniProt P20872)
[5] = biological target: HIV-2 UC1 envelope polypeptide (wild-type) (HIV-2 (strain UC1)) (UniProt Q76638)
[6] = biological target: HIV-2 7312A envelope with site-directed mutations 660 (K to A), 662 (N to D), 663 (S to K) and 665 (D to A) of SEQ ID NO:2 (HIV-2 (isolate 7312A))

## b12 monoclonal antibody
[1]
  neutralization IC50 (JC53bl-13 HIV entry assay): 3 µg/mL
[2]
  neutralization IC50 (JC53bl-13 HIV entry assay): > 50 µg/mL

## 4E10 monoclonal antibody
[1]
  neutralization IC50 (JC53bl-13 HIV entry assay): 25 µg/mL
[3]
  neutralization IC50 (JC53bl-13 HIV entry assay): 0.8 µg/mL
[4]
  neutralization IC50 (JC53bl-13 HIV entry assay): 0.1 µg/mL
[5]
  neutralization IC50 (JC53bl-13 HIV entry assay): 1.2 µg/mL
[2]
  neutralization IC50 (JC53bl-13 HIV entry assay): > 50 µg/mL

## 2F5 monoclonal antibody
[1]
  neutralization IC50 (JC53bl-13 HIV entry assay): 25 µg/mL
[6]
  neutralization IC50 (JC53bl-13 HIV entry assay): < 0.1 µg/mL
[2]
  neutralization IC50 (JC53bl-13 HIV entry assay): > 50 µg/mL
